Results taken from article doi:10.1101/131276.

Tests used:
Experiment in all cases: non-reducing SDS-PAGE and Western blot
[1] = target: Gbb15 made by cleavage at the atypical S0 site (from gbb mS1 or gbb mNSmS1), HA-tagged (Drosophila)
[2] = target: Gbb38 from gbb mS1, HA-tagged (Drosophila)
[3] = target: proGbb, the uncleaved Gbb proprotein from gbb mNSmS1, HA-tagged (Drosophila)
[4] = target: proGbb, the uncleaved Gbb proprotein from gbb mNSmS1mS0, HA-tagged (Drosophila)

Sequence of Gbb15 made by cleavage at the atypical S0 site (from gbb mS1 or gbb mNSmS1), HA-tagged (ligand) (P27091 37-455): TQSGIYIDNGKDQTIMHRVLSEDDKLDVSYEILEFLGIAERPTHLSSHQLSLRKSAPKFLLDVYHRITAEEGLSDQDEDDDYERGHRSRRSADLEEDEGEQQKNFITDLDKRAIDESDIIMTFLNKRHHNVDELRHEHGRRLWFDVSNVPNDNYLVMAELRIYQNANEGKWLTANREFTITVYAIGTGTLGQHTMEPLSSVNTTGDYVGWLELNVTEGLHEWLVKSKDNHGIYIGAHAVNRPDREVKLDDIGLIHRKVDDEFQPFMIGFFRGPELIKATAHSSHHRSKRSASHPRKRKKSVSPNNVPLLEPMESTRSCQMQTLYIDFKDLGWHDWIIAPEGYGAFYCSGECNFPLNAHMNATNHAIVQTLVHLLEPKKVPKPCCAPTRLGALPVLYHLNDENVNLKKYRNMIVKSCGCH

Q: Which stoichiometry N [1] does the source give for “Gbb15 made by cleavage at the atypical S0 site (from gbb mS1 or gbb mNSmS1), HA-tagged (ligand)” here?
A: The stoichiometry N was 2.

Q: How did the stoichiometry N [2] turn out when Gbb38 from gbb mS1, HA-tagged (ligand) was run?
A: Its stoichiometry N is 2.

Q: Which stoichiometry N [3] does the source give for “proGbb, the uncleaved Gbb proprotein from gbb mNSmS1, HA-tagged (natural protein)” here?
A: Its stoichiometry N is 2.

Q: Which stoichiometry N [4] does the source give for “proGbb, the uncleaved Gbb proprotein from gbb mNSmS1mS0, HA-tagged (natural protein)” here?
A: The stoichiometry N was 2.
